Data on 15 sequences can be found in the DeepSol protein solubility set.

The nature of the series: soluble on expression in E. coli; label from the status in PepcDB or PDB records.
With “MGSDKIHHHHHHMKPLADRIRPENFNEVFGQKHIIGEGKILDRILKSSLVPNMIFYGPPGTGKTTVANIIAKKTNKAFYKLNATTASVKDVREITDSTNTLMGRNGVLLYLDEIQNFNKKQQQSLLEFMENGSITLIASTTENPYFYVYNAILSRSTIFEFKPLESDELMKAVNRAVELIKDELKTTEIIITEDAKKYAVGVSSGDVRKTLNSIEIAVYSTKPNEEGNIFIDLETMKECTQKNVLNFDKDGDNHYDILSAFQKSIRGSDADAAVLYLAMLIKGGDLKSICRRLLVIAAEDIGLAYPQAISIVKACTDSALELGFPEARIPLAEAVILLATSPKSNSAITAVDSALRDLDTINVGSIPDYLRDGHYEGAKKLGRMQDYKYPHSYENNYVKQKYLPSNLENRRYYEYGKNKIEEKCREYWERIKY”, the “soluble on expression in E. coli” value is given as “not soluble”.

Consider “AHHHHHHGSVDWELMKKIIESPGVSGYEHLGIRDLVVDILKDVADEVKIDKLGNVIAHFKGSAPKVMVAAHMDKIGLMVNHIDKDGYLRVVPIGGVLPETLIAQKIRFFTEKGERYGVVGVLPPHLRREAKDQGGKIDWDSIIVDVGASSREEAEEMGFRIGTIGEFAPNFTRLSEHRFATPYLDDRICLYAMIEAARQLGEHEADIYIVASVQEEIGLRGARVASFAIDPEVGIAMDVTFAKQPNDKGKIVPELGKGPVMDVGPNINPKLRQFADEVAKKYEIPLQVEPSPRPTGTDANVMQINREGVATAVLSIPIRYMHSQVELADARDVDNTIKLAKALLEELKPMDFTP”, for which the “soluble on expression in E. coli” value is on record as “soluble”.

“LKRDFIILGNGPRLQNSTYQCKHCDSKLQSTAELTSHLNIHNEEFQKRAKRQERRKQLLSKQKYADGAFADFKQE”: the “soluble on expression in E. coli” value is “soluble”.

With “MRKQNRPNQTARKQMQNLTVELFARDKNARRQLLNVALTATPPPSVEPSSPTRPSEPIPPPLPEPIPELVQILLAAEPNKPSVPKRSNRKKLTYKQPPRNSTPQVPKVAVTLPVPEPVPEPVPEPVPESTPEPISEPLPVVQEEPASDSLTVQDEQIAQAEPAVEPEEPVVVEHVEVVTASEDPTLESSPPSEPPLLTTPTTPIEDPEPYVTPPPLQRVPYKAQLTHLANIRAVTESMNIAAIPAHHQQHQPQEPMSFAACVRKQPSIESMSVSPSPYAKFDGKTSPFNVGGFSNPGGFGGFSRLDPSKNVNPFANRKRFNYDYDSLPRDSQSSSRFMDRSDLSDGFSPFNSKPNGFTNRVIPRESASSGMLPSWYKGRSFSAASSHYPYSQRSTSTGHFSSFSRPSQSTSMNIPSHGHVEELDGFLAASGQTNPFFKRTDLNMKKERWAKIKAKKRMLRRPVEDQFYEDPDIEEEILHGNGVMLNQIVQQSSAGNYEDADLLRKYRRDVAFVKERVLNAIDGNIDGIRDLRFLLASVQTYGNIDGECMLAEMAMNEFSLFSGIVEKFHAIVGPWMPESESHRRRASRHALETHRIPLQNNFATITKKRLVEEILGRVEPSIACHQGVKVGLYSDACNEKTKIDLNIKNNFKDPGMLCDKNDRRFILVLQSELDLMVDSMKHLANNVGFHYDGFPVTPNCFVIVEAFVEAISDIMNEKIDVETMRWFSLLGQKVDAEDSVSPWETGTDFHCARHSEPKSNFCASVTVGRTCCIVYHVIGSFFRRYHLKKIPTAHQPSSSNSVQ”, the “soluble on expression in E. coli” value was “not soluble”.

As for “MGARGRMAASKGAVMSLLLDAYQKRDKLAMVSFRKNEAFVNLPVTSSIELAARMLKEMPVGGRTPFSAGLLKGYEIAQNYLRKEPGGRPLIILVTDGKANRAIGQGKPLDEVFTISEKISREERIRFLVVDTEEPGLVTFGLAKKIAGLLDAWYYRIDDLRADTLVSIVKTMMP”, the “soluble on expression in E. coli” value is recorded as “not soluble”.

“MAELYVKPGNKERGWNDPPQFSYGLQTQTGGPKRTPLTKRVAAPQDGSPRAPETSGPPPVDHPPPSSKASRPPPMGSCPATGVEPPSSPVIESETLIEDVLRPLEQALEDCHGHTKKQVCDDISRRLALLREQWAGGKLSIPVKKRMALLVQELLHHQWDAADDIHRSLMVDHVTEVSQWMVGVKRLIAEKKSLSSEETKEEKFTVEPENQTIPGFQQPS”: the “soluble on expression in E. coli” value is “soluble”.

“SCSTSGCDLEEIPLDDDDLNTIEFKILAYYTRHHVFKSTPALFSPKLLRTRSLSQRGLGNCSANESWTEVSWPCRNSQSSEKAINLGKKKSSWKAFFGVVEKEDSQSTPAKVSAQGQRTLEYQDSHSQQWSRCLSNVEQCLEHEAVDPKVISIANRVAEIVYSWPPPQATQAGGFKSKEIFVTEGLSFQLQGHVPVASSSKKDEEEQILAKIVELLKYSGDQLERKLKKDKALMGHFQDGLSYSVFKTITDQVLMGVDPRGESEVKAQGFKAALVIDVTAKLTAIDNHPMNRVLGFGTKYLKENFSPWIQQHGGWEKILGISHEEVD”: the “soluble on expression in E. coli” value is recorded as “soluble”.

In the case of “MGSDKIHHHHHHMRYHIALVGRRNSGKSSLLNMLAGQQISIVSDIKGTTTDAVAKAYELQPLGPVTFYDTAGIDDEGTLGAMRVSATRRVLFRSDMALLVVDEQGLCPSDMALIDEIRQLQMPILMVFNKADICTPKAEDIAFCQNQSLPFIVVSAATGLAGKQLKQLMVELAPAEYKQEPLLAGDLYQAGDVILCVVPIDMAAPKGRLILPQVQILREALDRSAIAMVVKETELAQALSVVTPKLVISDAQAIKQVAAIVPDAVPLTTFSTLFARFKGDLAALATGADALDTLQDGDKVLISEACSHNVQEDDIGRVKLPRWINSYTGKQLEFVVTSGHDFPNDLEQYALVIHCGACMFNRNEMLRRIRECQRRQVPITNYGVAISKLQGVLPRVLTPFNRNPQQ”, the “soluble on expression in E. coli” value is reported as “not soluble”.

With “MSLSAYAELHCLSNFSFQRGASSAAELFQRAKALGYQALAITDECTLAGIVRAWQASRDTGLKLIVGSEMQVEDGPRLVLLVEDLAGYQGLCRLITRARRRAEKGSYRLLREDFAEPLPGLLALWLTGAGEPLAQGRWLQQVFPQRLWLALELHCGQDDARHLQQQLALARQLGLPAVACGDVHMHVRGRRALQDTMTAIRHHLPVAEAGQRLFANGERHLRPVEVLQGLYPQALLDESLAIAGRCAFDLGQLRYQYPRELVPEGHDAGSWLRVLTQRGIVRRWPTGARAEVLKQIDKELTLICDLGYESYFLTVHDIVDFARRQHILCQGRGSAANSVVCFALGITEIDPDRSTLLFERFLSRERNEPPDIDVDFEHERREEVLQYLFQRYGRHRAALTAVVSTYHGAGAVRDVAKALGLPPDQVNALADCCGHWSDTPPSVERLQEAGFDPQSPVLRRVLSLTGQLIGFPRHLSQHPGGFVISEQPLDHLVPVENATMAERTVIQWDKDDLDMVGLLKVDILALGMLSAIRRCFDLIHGYRGQRYSLASIPPEDPATYEMIGRADTIGVFQIESRAQMSMLPRLKPQNFYDLVIEVAIVRPGPIQGGMVHPYLRRRNRQEPETYPSPELEGVLKRTLGVPLFQEQVMQIAIVAADYTPGEADQLRRSMAAWKRHGGLEPHRERLRRGMNRNGYSDEFATQIFEQIKGFGSYGFPESHAASFALLTYASCWLKCHEPAAFACALINSWPMGFYSPDQILQDARRHGLQVLAVDVGASDWDCSLEPIPVQPARAGNGPPGQPALRLGLRMIKGFREDDARRIERARRQRAFVDIADLGERARLDVRAQELLADAGALQALAGDRYRARWEVAGVERQLGLFAEGHHHHHH”, the “soluble on expression in E. coli” value was “soluble”.

Take “MDQTNENVKESEPPSDDGPPILSVLCSLVDEIGSLRNENLRLKTRLVPAPRNTKNVVQRMSAMLEHRGSSIFPKLRRANRSSESMEIRNGARERLSTPPRKETSNSMNTSSDVSYGRNRAPPIVRPEQSDSEIDEQIFDDDDHRSRDTTRRCDSVNVPRHQNDNSTSACTSPSSASSSRDPSETMTTSRSSFLDLLGLRRRSTHIPQPTSYSKTTALKQTNKKRRRKISGNDNDSESSGMYANMEDHCSRVPSKPPRPASYYRRDDSEDSDCLRQMRQRKTASSLNVNNYEHRHEDMYRVSRETQWQHEKDNLMAEIEEMKMRNNRLVEQLREKSQQQSKLQCQLHKAEMQVNALSRRCALSEALDRLTLDERMEKSATSWIKKIEERLRIFENQMQNAKLEAATAHQMALNSSCHEKDAHQNCLEKLESLQREHMRVIHSSLVEIGVDEINMKRRLENLPTYEALYAFTHSVVRRLNEARWAVIEKTNETSRAQIDLIVSQSSHLVSLAQLERLKIMQTLRGKRQKRPSSFHGHSVSERNIRQDLSFYLPLKLHGSRVENSRRTIKKNAIVGNDRNIEEEFLKLFSYSKDFSMELAAPPERRANTRIETMMREMNGNGRPIIRRGPSGVSNSNIMRDRVTREVPSNRRPISLVETEERRIRRNEETKRSIKFMKTNSIDHGYNAYEPPPASRTTTTTIVASTQDISNNVHSPHGTPVFTRRIIIPVKGNAYDIVPEGTTANIVPANIPQMGRVRKLERAFSAESRNTVDSLHDREEQRRERRDHVEGGVERRQSKIQRSQPVSRLKQPSVQLSKFRTIENNGANREPPSSSILRPRTLEPQTSIPRITTSPPESRIPTPSSRHGNEKRGWLERLKGIGKL”: the “soluble on expression in E. coli” value is “not soluble”.

Turning to “MGSDKIHHHHHHMIVLIGGEKGGSGKSCLAQNIAVFLTTECGASVIMVDCDPQRTTSDWIQARNNNPKLASINCVQLYGKIRNDLLSLEQHYDFVIVDCGGQDNLALRATMSVASHILMPLRPKRRDLKTVSHMDDIVATCKMINPKLHASFVITQCPNLPNQANRILEAKEICKTYDINVLDSITYSRNIYDDSEESGLSVLEIEPKGKAAAEIRAIACEMFQVDCAASLTALLKPSTSIAGHHSQINQNQSNHLRGQYGTQRPQEKRYAI”, the “soluble on expression in E. coli” value is “not soluble”.

With “MPEQSIEMTPDSSVYKALLESTKAIPWKINWQTMAFEYIGPQIEALLGWPQGSWKSVEDWATRMHPEDQEWVVNFCVKQSECGVDHEADYRALHRDGHYVWIRDVVHVVRDDSGEVEALIGFMFDISERKKTLEHHHHHH”, the “soluble on expression in E. coli” value is recorded as “not soluble”.

As to “MNVILFDGICNLCNGAVTFVVKRDRKGLFRFVSLQSETGKSLLKRYAVESTNKTLYYFRNNRCYSKSTAILYILKDLGGFWQCLYPLILIPAKLRDAIYLLVSKYRYRIFGKADSCIKPFGFSSEESKRSDLEHHHHHH”, the “soluble on expression in E. coli” value is on record as “not soluble”.

For “MSLEDYTRIVADRMEGQSQVQVRAEGNVVVERNRTTLNADWADYDQSGDTVTAGDRFALQQDGTLIRGETLTYNLEQQTGEAHNVRMETEHGGRRLQSVSRTAEMLGEGHYKLTETQFNTCSAGDAGWYVKAASVEADREKGIGVAKHAAFVFGGVPIFYTPWADFPLDGNRKSGLLVPSLSAGSDGVSLSVPYYFNLAPNLDATFAPGVIGERGAVFDGQVRYLRPDYAGQSDLTWLPHDKKSGRNNRYQAKWQHRHDISDTLQAGVDFNQVSDSGYYRDFYGNKEIAGNVNLNRRVWLDYGGRAAGGSLNAGLSVLKYQTLANQSGYKDKPYALMPRLSADWRKNTGRAQIGVSAQFTRFSHDSRQDGSRLVVYPDIKWDFSNSWGYVRPKLGLHATYYSLNRFGSQEARRVSRTLPIVNIDSGMTFERNTRMFGGGVLQTLEPRLFYNYIPAKSQNDLPNFDSSESSFGYGQLFRENLYYGNDRINTANSLSAAVQSRILDGATGEERFRAGIGQKFYFKNDAVMLDGSVGKKPRSRSDWVAFASSGIGSRFILDSSIHYNQNDKRAENYAVGASYRPAQGKVLNARYKYGRNEKIYLKSDGSYFYDKLSQLDLSAQWPLTRNLSAVVRYNYGFEAKKPIEVLAGAEYKSSCGCWGAGVYAQRYVTGENTYKNAVFFSLQLKDLSSVGRNPADRMDVAVPGYIPAHSLSAGREGHHHHHH”, the “soluble on expression in E. coli” value was “not soluble”.

In the case of “MKAKLVSLLAQANIKISDQQIQQLINLVNLLNKWNKAYNLTSVRDPQEMLVKHILDSLVVSPYLQGDRFIDVGTGPGLPGLPLAIINPSKQFVLLDSLGKRISFIRNAIRELRLTNVTPVLSRVEEYQPEDKFDGVLSRAFASLKDMTDWCHHLPKENGYFYALKGIYQEDEINELNKKYTIQKVIELSVPELIGERHLIVLRLEHHHHHH”, the “soluble on expression in E. coli” value was “not soluble”.
